Measured values as given in patent US20200140526A1 (UNIVERSITY OF ROCHESTER, published 2020).

Tests used:
[1] = target: T1, B/Brisbane/60/2008 (IBV) HA (influenza B virus B/Brisbane/60/2008 …, UniProt P22092 16-559); test: cell-based or functional assay
[2] = target: A/Puerto Rico/08/1934 H1N1 (PR8 H1N1) HA (influenza A virus A/Puerto Rico/08/1934 …, UniProt P03452 18-528); test: cell-based or functional assay
A/Wyoming/3/2003 H3N2 HA = A/Wyoming/3/2003 H3N2 HA (influenza A virus A/Wyoming/3/2003 H3N2); test: cell-based or functional assay
[3] = target: A/South Carolina/01/1918 H1N1 HA (influenza A virus A/South …, UniProt Q9WFX3 18-529); test: mPLEX-Flu multiplex bead assay, PE anti-human IgG, MFI heat map
[4] = target: T1, B/Brisbane/60/2008 (IBV) HA; test: as above
A/Texas/50/2012 = test: as above
B/Massachusetts/2/2012 = target: T2, B/Massachusetts/2/2012; test: as above
T2 construct: column under B

B1: KPF1 human monoclonal antibody (hmAb) (antibody, V domains shown)
VH: EVQLLESGGGLVQPGGSLRISCAASGSTFGDFAMSWVRQSPGRGLEWVSVTSAGGDRTYYADSVKGRFTISRDNSKNTLYLQMNSLRGEDTAMYYCARLDSSGFHYGRPGRNWGQGTLVTVSS
VL: DIQMTHSPPSLSASVGDRITITCQASQDISYYLIWYQQKPGKAPKPLIYDASNLEAGVPSRFSASGSGTDFTLTISSLQPEDLATYYCQQYKSLPYTFGQGTKLEIK
[1]
  NT50 (µg/ml), microneutralization, crystal violet: > 200 µg/mL
[2]
  NT50 (µg/ml), microneutralization, crystal violet: 146 µg/mL
A/Wyoming/3/2003 H3N2 HA
  NT50 (µg/ml), microneutralization, crystal violet: > 200 µg/mL
[3]
  binding result: binds
[4]
  binding result: no binding (tested: 1 ug/ml)
A/Texas/50/2012
  binding result: no binding (tested: 1 ug/ml)
B/Massachusetts/2/2012
  binding result: no binding (tested: 1 ug/ml)
